{
  "source": "paper doi:10.1101/197186",
  "about": "(bioRxiv, 2017)",
  "proteins": {"B1": {"name": "human MORC2(1-603) S87L (domain or fragment)", "chain": "MAFTNYSSLNRAQLTFEYLHTNSTTHEFLFGALAELVDNARDADATRIDIYAERREDLRGGFMLCFLDDGAGMDPSDAASVIQFGKLAKRTPESTQIGQYGNGLKSGSMRIGKDFILFTKKEDTMTCLFLSRTFHEEEGIDEVIVPLPTWNARTREPVTDNVEKFAIETELIYKYSPFRTEEEVMTQFMKIPGDSGTLVIIFNLKLMDNGEPELDIISNPRDIQMAETSPEGTKPERRSFRAYAAVLYIDPRMRIFIHGHKVQTKRLSCCLYKPRMYKYTSSRFKTRAEQEVKKAEHVARIAEEKAREAESKARTLEVRLGGDLTRDSRVMLRQVQNRAITLRREADVKKRIKEAKQRALKEPKELNFVFGVNIEHRDLDGMFIYNCSRLIKMYEKVGPQLEGGMACGGVVGVVDVPYLVLEPTHNKQDFADAKEYRHLLRAMGEHLAQYWKDIAIAQRGIIKFWDEFGYLSANWNQPPSSELRYKRRRAMEIPTTIQCDLCLKWRTLPFQLSSVEKDYPDTWVCSMNPDPEQDRCEASEQKQKVPLGTFRKDMKTQEEKQKQLTEKIRQQQEKLEALQKTTPIRSQADLKKLPLEVTTRPST"}},
  "molecular_target": "the molecule itself",
  "test": "SEC",
  "data": [
    {"protein": "B1", "values": [
      {"measurement": "stoichiometry N", "result": 2}
    ]}
  ]
}
